Measurements taken from paper PMC10746542 (Nature chemical biology, 2023).
Values belong to the binder of their own block, whether it stands above or below them.

Columns and labels:
[1] = molecular target: bi-paratopic VH27.2/VH31 inhibitor (tetravalent Fc); experiment: flow cytometry on cells; MDA-MB-231 cells stained with a titration of binder, 1 hr at 4°C in PBS with 3% BSA; ProtA-647 secondary; EC50 from median fluorescence intensity, sigmoidal 4PL fit; conditions: one partner purified
[2] = molecular target: VH27.2-Fc Y102A; experiment: BLI; biotinylated ENPP1-Fc antigen loaded on streptavidin biosensors, blocked with 5 uM biotin; binder in solution, 600 s association, 900 s dissociation; TBS, 0.02% TWEEN-20, 0.2% BSA, 200 uM zinc chloride, 2 mM calcium chloride, 75 mM sodium chloride; 1:1 monovalent binding model; conditions: both partners purified
[3] = molecular target: VH27/T75I/A89V-Fc; experiment: as above; conditions: both partners purified
[4] = molecular target: VH27.2-Fc W104F; experiment: as above; conditions: both partners purified

- binding result [1]: binds
B1: native ENPP1 on the cell membrane (natural protein, UniProt P22413 1-925, looked up)
chain: MERDGCAGGGSRGGEGGRAPREGPAGNGRDRGRSHAAEAPGDPQAAASLLAPMDVGEEPLEKAARARTAKDPNTYKVLSLVLSVCVLTTILGCIFGLKPSCAKEVKSCKGRCFERTFGNCRCDAACVELGNCCLDYQETCIEPEHIWTCNKFRCGEKRLTRSLCACSDDCKDKGDCCINYSSVCQGEKSWVEEPCESINEPQCPAGFETPPTLLFSLDGFRAEYLHTWGGLLPVISKLKKCGTYTKNMRPVYPTKTFPNHYSIVTGLYPESHGIIDNKMYDPKMNASFSLKSKEKFNPEWYKGEPIWVTAKYQGLKSGTFFWPGSDVEINGIFPDIYKMYNGSVPFEERILAVLQWLQLPKDERPHFYTLYLEEPDSSGHSYGPVSSEVIKALQRVDGMVGMLMDGLKELNLHRCLNLILISDHGMEQGSCKKYIYLNKYLGDVKNIKVIYGPAARLRPSDVPDKYYSFNYEGIARNLSCREPNQHFKPYLKHFLPKRLHFAKSDRIEPLTFYLDPQWQLALNPSERKYCGSGFHGSDNVFSNMQALFVGYGPGFKHGIEADTFENIEVYNLMCDLLNLTPAPNNGTHGSLNHLLKNPVYTPKHPKEVHPLVQCPFTRNPRDNLGCSCNPSILPIEDFQTQFNLTVAEEKIIKHETLPYGRPRVLQKENTICLLSQHQFMSGYSQDILMPLWTSYTVDRNDSFSTEDFSNCLYQDFRIPLSPVHKCSFYKNNTKVSYGFLSPPQLNKNSSGIYSEALLTTNIVPMYQSFQVIWRYFHDTLLRKYAEERNGVNVVSGPVFDFDYDGRCDSLENLRQKRRVIRNQEILIPTHFFIVLTSCKDTSQTPLHCENLDTLAFILPHRTDNSESCVHGKHDSSWVEELLMLHRARITDVEHITGLSFYQQRKEPVSDILKLKTHLPTFSQED

- Kd [2]: 111 nM
- Kd [3]: 0.7 nM
- Kd [4]: 14.2 nM
B2: T256A ENPP1-Fc (human ENPP1 ectodomain, ΔSMB, T256A, C-terminal Fc fusion with AviTag, biotinylated) (Fc fusion)
chain: GEKSWVEEPCESINEPQCPAGFETPPTLLFSLDGFRAEYLHTWGGLLPVISKLKKCGTYTKNMRPVYPTKAFPNHYSIVTGLYPESHGIIDNKMYDPKMNASFSLKSKEKFNPEWYKGEPIWVTAKYQGLKSGTFFWPGSDVEINGIFPDIYKMYNGSVPFEERILAVLQWLQLPKDERPHFYTLYLEEPDSSGHSYGPVSSEVIKALQRVDGMVGMLMDGLKELNLHRCLNLILISDHGMEQGSCKKYIYLNKYLGDVKNIKVIYGPAARLRPSDVPDKYYSFNYEGIARNLSCREPNQHFKPYLKHFLPKRLHFAKSDRIEPLTFYLDPQWQLALNPSERKYCGSGFHGSDNVFSNMQALFVGYGPGFKHGIEADTFENIEVYNLMCDLLNLTPAPNNGTHGSLNHLLKNPVYTPKHPKEVHPLVQCPFTRNPRDNLGCSCNPSILPIEDFQTQFNLTVAEEKIIKHETLPYGRPRVLQKENTICLLSQHQFMSGYSQDILMPLWTSYTVDRNDSFSTEDFSNCLYQDFRIPLSPVHKCSFYKNNTKVSYGFLSPPQLNKNSSGIYSEALLTTNIVPMYQSFQVIWRYFHDTLLRKYAEERNGVNVVSGPVFDFDYDGRCDSLENLRQKRRVIRNQEILIPTHFFIVLTSCKDTSQTPLHCENLDTLAFILPHRTDNSESCVHGKHDSSWVEELLMLHRARITDVEHITGLSFYQQRKEPVSDILKLKTHLPTFSQED
modifications: biotin on the AviTag
